{"source": "paper PMC3979677", "about": "“Low-Resolution Structure of the Full-Length Barley (Hordeum vulgare) SGT1 Protein in Solution, Obtained Using Small-Angle X-Ray Scattering” (PLoS ONE, 2014)", "proteins": {"B1": {"name": "full-length barley (Hordeum vulgare) SGT1 protein (natural protein, Hordeum vulgare (barley), UniProt Q8W516 1-373, looked up)", "chain": "MAAAAASDLESKAKEAFVDDDFELAAELYTQAIEAGPATAELYADRAQAHIKLGSYTEAVADANKAIELDPSMHKAYLRKGSACIKLEEYQTAKAALEVGSSYASGDSRFTRLMKECDDRIAEEASQAPVKNAAAAVAPATSSGATTVVTEAEDQDGENMENAQPTVEVPSKPKYRHDYYNTPTEVVLTIFAKGVPADSVVVDFGEQMLSVSIELPGEEPYHFQPRLFSKIVPDKCKYTVLSTKVEIRLAKAEPVTWTSLDYTGKPKAPQKINVPAESAQRPSYPSSKSKKDWDKLEAEVKKQEKDEKLDGDAALNKFFREIYSDADEDMRRAMMKSFVESNGTVLSTNWKDVGKKTVEGSPPDGMELKKWEY", "notes": "SGT1 (suppressor of the G2 allele of skp1), Hordeum vulgare, full length cDNA; 373 amino acids in total; Cloned in pET151-D TOPO; His-TEV site cleaved with His-TEV protease (Ser219Val); also called barley SGT1; HvSgt1; source: E. coli BL21 DE3 Codon Plus, purified (HisTrap Ni-NTA, Superdex 200, TEV cleavage, HisTrap, MonoQ)"}, "B2": {"name": "TPR domain from Hordeum vulgare SGT1 (6-124) (domain or fragment, Hordeum vulgare (barley), UniProt Q8W516 6-124, looked up)", "chain": "ASDLESKAKEAFVDDDFELAAELYTQAIEAGPATAELYADRAQAHIKLGSYTEAVADANKAIELDPSMHKAYLRKGSACIKLEEYQTAKAALEVGSSYASGDSRFTRLMKECDDRIAEE", "notes": "SGT1, Hordeum vulgare, tetratricopeptide repeats (TPR) domain, residues 6-124; Cloned in pETM11 (NcoI/EcoRI) from pET151-HvSgt1; his-tag cleaved with TEV protease; source: E. coli BL21(DE3) Codon Plus, purified (HisTrap, TEV cleavage, HisTrap, Superdex 200)"}}, "key": {"[1]": {"molecular_target": "the molecule itself", "assay": "SAXS; full-length SGT1 in solution, 3.46, 3.41 and 2.71 mg/mL in 50 mM Tris/HCl pH 7.5, 5 mM DTT with 0, 0.5 or 1 M NaCl, 10°C; SVD and MCR-ALS analysis; dimer to monomers"}, "[2]": {"molecular_target": "the molecule itself", "assay": "SAXS; TPR domain in solution, 2 mg/ml in 50 mM Tris HCl pH 7.5, 5 mM DTT with 0, 100, 200, 400, 600 or 800 mM KCl, 15°C; SVD and MCR-ALS analysis; dimer to monomers"}}}
{"protein": "B1", "values": [{"measurement": "stoichiometry N", "setting": "[1]", "value": 2}]}
{"protein": "B2", "values": [{"measurement": "stoichiometry N", "setting": "[2]", "value": 2}]}
